The term Kd denotes the equilibrium constant for the complex coming apart.

The target of assay [1] is T1, recombinant human CD25 (rhCD25), NS/0-expressed recombinant protein from R&D Systems (cat#223-2A/CF) (human, UniProt P01589 22-213, limits assumed).
T1 construct: Coated on ELISA plates, and amine-coupled to a CM-5 chip for SPR; also called hrCD25; soluble CD25
T1 sequence (looked up): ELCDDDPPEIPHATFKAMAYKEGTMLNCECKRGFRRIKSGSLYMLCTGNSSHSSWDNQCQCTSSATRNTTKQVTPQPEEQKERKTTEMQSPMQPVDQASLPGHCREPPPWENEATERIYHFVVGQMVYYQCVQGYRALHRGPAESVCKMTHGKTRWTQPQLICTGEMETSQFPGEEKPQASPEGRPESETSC
Put plainly: competition ELISA on coated rhCD25 (100 ng/ml); antibody supernatant added 10 min before rIL-2-biotin (50 ng/ml); streptavidin-poly-HRP/ABTS, OD405; blocked ligand: biotinylated IL-2. As for the experimental part: After washing (3×) the plates with PBST, 100 μl of sample antibody (concentration range: 10, 33, and 100 ng/ml) was added. […] After washing the plates 3× (in PBST), plates were incubated with streptavidin-poly-HRP (dilute 1:10,000 from stock) in PBS, and 100 μl was added to each well (1 hour, RT). After washing the plates (3× in PBST), 10 mg ABTS (Roche) per 10 ml ABTS buffer (Roche) was made and 100 μl added to each well.
On the technique in general: An ELISA detects its analyte on a solid surface through an enzyme-linked reagent.

In assay [2] the target is T1, recombinant human CD25 (rhCD25), …. Put plainly: SPR, BIAcore 3000, 25 C; rhCD25 amine-coupled to CM-5 chip at low density, antibody as analyte, 1:1 Langmuir model.
Experimental: Affinity analyses were assessed by monitoring changes in surface plasmon resonance using a BIAcore 3000 instrument. A BIAcore 3000 and BIAcore 3000 software control (BIAcore, Uppsala, Sweden, lot#BR-1100-43) was used. […] After blocking the residual binding sites of the activated sensor chip using ethanol-amine-HCl, a kinetic analysis was performed at 25° C. […] The results were visualized using a BIAcore 3000 (Bio-tek Instruments) and analyzed using the BIAevaluation Software 3.1 (BIAcore, Uppsala, Sweden) and Languir binding 1:1 was used as pre-fixed model.

B1: human monoclonal antibody AB1 (antibody, human IgG1, V domains shown)
VH: QVQLVQSGAEVKKPGSSVKVSCKASGGTFSRYPINWVRQAPGQGLEWMGRIIPILGIADYAQRFQGRVTITADKSTNTAYMELSSLRSEDTAVYYCARRDWGDYWGQGTLVTVSS
VL: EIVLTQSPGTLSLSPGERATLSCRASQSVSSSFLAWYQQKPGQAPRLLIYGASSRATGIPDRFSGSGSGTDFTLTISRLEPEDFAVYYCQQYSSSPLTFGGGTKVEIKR
notes: Human IgG1,kappa from a hybridoma (HuMAb mouse)
On to B1, for which the binding result in assay [1] is given as “binds”.

B2: human monoclonal antibody AB7 (antibody, V domains shown)
VH: QVQLVQSGAEVKKPGSSVKVSCKASGGTFSRYAINWVRQAPGQGLEWMGRIIPILDIADYAQKFQDRVTITADKSTNTAYMELSSLRSEDTAVYYCARKDWFDPWGQGTLVTVSS
VL: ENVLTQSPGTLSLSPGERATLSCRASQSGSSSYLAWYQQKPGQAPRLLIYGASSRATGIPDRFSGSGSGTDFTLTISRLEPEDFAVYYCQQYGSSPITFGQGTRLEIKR
notes: as for B1
B2: in assay [1], the binding result is on record as “binds”.

B3: human monoclonal antibody AB12 (antibody, V domains shown)
VH: QVQLVQSGAEVKKPGSSVKVSCKASGGTFSRYIINWVRQAPGQGLEWMGRIIPILGVENYAQKFQGRVTITADKSTSTAYMELSSLRSEDTAVYYCARKDWFDYWGQGTLVTVSS
VL: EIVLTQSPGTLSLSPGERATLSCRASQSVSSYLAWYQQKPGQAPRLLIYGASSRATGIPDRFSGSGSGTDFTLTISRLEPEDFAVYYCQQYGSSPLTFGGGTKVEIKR
notes: Human IgG1,kappa from a hybridoma (HuMAb mouse); also called AB12-FITC; FITC-labeled AB12
In the case of B3, the equilibrium dissociation constant (Kd) in assay [2] amounted to 0.0474 nM.

B4: human monoclonal antibody AB11 (antibody, human IgG1, V domains shown)
VH: QVQLVQSGAEVKKPGSSVKVSCKASGGTFSRYPINWVRQAPGQGLEWMGRIIPILGIADYAQRFQGRVTITADKFTNTAYMELSSLRSEDTAVYYCARRDWGDYWGQGTLVTVSS
VL: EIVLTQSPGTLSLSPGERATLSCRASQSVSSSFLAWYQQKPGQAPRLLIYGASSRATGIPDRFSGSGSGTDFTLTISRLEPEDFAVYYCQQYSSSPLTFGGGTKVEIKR
notes: as for B1
Consider B4, for which, in assay [1], the binding result is “binds”.

For the origin of these results see US20090081219A1 (Genmab, published 2009).
